Here are results for 1 molecule from US7572594B2, “Screening assays for agonists or antagonists or receptor activator of NF-κB” (Immunex Corporation, priority 2000, dated 2009).

What all share (type): cell-based, mouse
The subject of experiment [1] is spleen cells from RANK −/− mice. The experiment is described as follows: CaPO4 resorption (pit formation) assay. Conditions: 5 days in 40 ng/ml CSF-1 and 200 ng/ml mRANK-L on CaPO4 film. The text has this: The resorption of CaPO4, upon which this assay is based, is considered to be a measure of osteoclast activity. Spleen cells were isolated from 3-6 week old RANK −/− mice and treated as described in Example 9 to remove cells expressing the CD3, Ter-119, and GR-1 antigens. Cells not expressing any of these antigens were harvested and infected as described in Example 9 with retroviral vector particles containing full-length or TRAF6 binding site deletion mutants of RANK.
Following infection, the spleen cells were harvested and plated in MEM containing 10% fetal bovine serum containing 40 ng/ml CSF-1 and 200 ng/ml mRANK-L onto 16 well quartz slides coated with a thin film of CaPO4 (Osteologic, BD Biosystems). After 5 days in culture, the slides were washed, the cells removed by washing with bleach, and the slides washed again with buffer. […] The number of pits in the CaPO4 film is a measure of the extent to which the RANK-L induced the cells grown on that slide to differentiate into osteoclasts.
If desired, the CaPO4 film can be stained using a 0.5% solution of alizarin red for 4 to 5 minutes followed by washing in water. After staining, the resorptive lacunae are visualized by phase contrast microscopy as a clear area on a red background.

Another experiment relates to c-src tyrosine kinase. The experiment is described as follows: c-src immune complex kinase assay in RANK −/− osteoclast precursors infected with RANK retrovirus. Conditions: cells differentiated after retroviral infection; background = uninfected RANK −/− cells. The protocol:
Experiments were conducted in which DNA encoding wild-type or human RANK/TRAF6 binding mutant (RANK Δ340-421) was introduced into hematopoietic cells isolated from RANK −/− mice. Full-length and mutant human RANK DNAs were subcloned into the pBMNZ retroviral vector as previously described (Kinsella and Nolan, 1996, Human Gene Therapy 7:1405-1413). Infectious RANK-containing retrovirus was produced in 293-E Phoenix packaging cells as described (Kinsella and Nolan, 1996). Supernatants from these cells were used as a source of infectious virus particles.
The generation of the RANK −/− mice used in these assays has been described previously (Dougall et al., 1999). Spleen cells were isolated from 3-6 week old RANK−/− mice and enriched for osteoclast precursors by depleting the initial cell population of various types of cells other than osteoclast precursors. For this “depletion” step, the cells were incubated with biotinylated antibodies against CD3 (specific for T cells), Ter-119 (specific for erythrocytes), and GR-1 (specific for granulocytes). After the antibodies had bound to their respective target cells, streptavidin-conjugated magnetic beads were added to the culture, and the mixture of cells was passed over magnetic columns (MACS depletion columns; MILLTENNYI). […]
To induce c-src and F-actin rings, recombinant mRANK-L/leucine zipper protein was added to the cultures at a concentration of 1 μg/ml for various times after which the cells were lysed in a buffer containing 50 mM HEPES (pH 7.2), 10% glycerol, 250 mM NaCl and 1% Triton X-100. […] C-src activity in the immune complex was monitored using a commercially available assay kit (Upstate Biotechnology, Lake Placid, N.Y.). […] The phosphorylated substrate peptide was then separated from the residual labeled ATP using phosphocellulose paper and labeled peptide was quantified using a scintillation counter. […]

Experiment [2] concerns primary hematopoietic cells from the RANK −/− mice. Briefly: F-actin ring formation, phalloidin staining. The following applies: 5 days in 40 ng/ml CSF-1 and 200 ng/ml mRANK-L. The source says:
To detect F-actin rings, cells are fixed, such as by exposure to 3% paraformaldehyde, and visualized by staining cells with a fluorescent probe that binds specifically with actin. A suitable fluorescent tag is phalloidin, which can be obtained from Molecular Probes, Eugene, Oreg. The fluorescent signal is detected, for example, using a standard fluorescent microscope, and the number of cells having F-actin rings is visually quantified. An F-actin ring is identified as a continuous ring of F-actin at the periphery of a cell, and these distinct structures are visible through a microscope.
A procedure to detect F-actin rings was carried out as follows. Primary hematopoietic cells from the RANK −/− mice were infected with retroviral constructs encoding either the full-length human RANK cDNA or the RANK/TRAF6 binding mutant (RANK Δ340-421). Cells were cultured on LabTek Chamber slides with #1 borosilicate coverglasses (Nalge/Nunc). After incubation for 5 days in MEM containing 10% fetal bovine serum containing 40 ng/ml CSF-1 and 200 ng/ml mRANK-L. The media was aspirated, washed twice in PBS and then fixed in a solution of 3% paraformaldehyde for 10 minutes, followed by quenching in 50 mM NH4Cl. […] The fluorescent signal was detected using a standard fluorescent microscope, and F-actin rings were identified as continuous rings of F-actin at the periphery of individual cells.

B1: RANK Δ340-421: human RANK (SEQ ID NO:2) with the TRAF6 binding site (amino acids 340-421) deleted (protein, listed as Homo sapiens)
chain: MAPRARRRRPLFALLLLCALLARLQVALQIAPPCTSEKHYEHLGRCCNKCEPGKYMSSKCTTTSDSVCLPCGPDEYLDSWNEEDKCLLHKVCDTGKALVAVVAGNSTTPRRCACTAGYHWSQDCECCRRNTECAPGLGAQHPLQLNKDTVCKPCLAGYFSDAFSSTDKCRPWTNCTFLGKRVEHHGTEKSDAVCSSSLPARKPPNEPHVYLPGLIILLLFASVALVAAIIFGVCYRKKGKALTANLWHWINEACGRLSGDKESSGDSCVSTHTANFGQQGACEGVLLLTLEEKTFPEDMCYPDQGGVCQGTCVGGGPYAQGEDARMLSLVSKTEIEEDSLQKEVDSGHCPHWAASPSPNWADVCTGCRNPPGEDCEPLVGSPKRGPLPQCAYGMGLPPEEEASRTEARDQPEDGADGRLPSSARAGAGSGSSPGGQSPASGNVTGNSNSTFISSGQVMNFKGDIIVVYVSQTSQEGAAAAAEPMGRPVQEETLARRDSFAGNGPRFPDPCGGPEGLREPEKASRPVQEQGGAKA
B1: the CaPO4 resorption result in experiment [1] was “insignificant levels of CaPO4 resorption”. The c-src activity entry with c-src tyrosine kinase is listed as “not discernibly different from background levels”. Besides, in experiment [2], the “cells with F-actin rings” value is “no F-actin rings were discerned”.
